According to patent publication US20220289830A1 (STAIDSON BEIJING BIOPHARMACEUTICALS, published 2022):

Legend:
[1] = target: T1, recombinant Pseudomonas aeruginosa PcrV, full-length (PAO), His-tagged (Pseudomonas aeruginosa); experiment: BLI
[2] = target: T1, recombinant Pseudomonas aeruginosa …; experiment: SPR (BIACORE)
[3] = target: T2, native PcrV on live Pseudomonas aeruginosa (strains O6-57/66, O11-PA103, O1-52/66, O16-177/81) (Pseudomonas aeruginosa); experiment: cell-based or functional assay
[4] = target: T2, native PcrV on live Pseudomonas …; experiment: cell-based or functional assay; remark: listed apart in the source
[5] = target: T2, native PcrV on live Pseudomonas …; experiment: cell-based or functional assay; remark: listed apart in the source
[6] = target: T2, native PcrV on live Pseudomonas …; experiment: cell-based or functional assay; remark: listed apart in the source
[7] = target: T1, recombinant Pseudomonas aeruginosa …; experiment: ELISA, PcrV coated on the plate, goat anti-human Fc-AP detection

Binder	Kd [1]	Kd [2]	RBC lysis assay IC50 (P. aeruginosa strain 57/66(O6)) [3]	A549 cytotoxicity assay IC50 (P. aeruginosa strain PA103(O11)) [4]	RBC lysis Average IC50 over the three strains [5]	RBC lysis IC50, strain O1-52/66 [5]	RBC lysis IC50, strain O6-57/66 [5]	RBC lysis IC50, strain O16-177/81 [5]	A549 cell lysis Average IC50 over the strains [6]	A549 cell lysis IC50, strain O1-52/66 [6]	A549 cell lysis IC50, strain O6-57/66 [6]	A549 cell lysis IC50, strain O11-PA103 [6]	A549 cell lysis IC50, strain O16-177/81 [6]	EC50 [7]
7C1 (antibody, V domains shown, also called optimized anti-PcrV mAb clone 7C1) VH: EVQLLESGGGLVQPGGSLRLSCTASGFTFSDNHMSWVRQAPGKGLDWVSGISESGGSTNYADSVKGRFSTSRDNSKSTLYLDMNSLRAEDTAIYYCAKGRFSTSSSHFYRAVYGMDVWGQGTAVTVSS VL: DIQLTQSPSSLSASVGDRVTITCRASQGISSYLAWYQQKPGKAPKLLIYAASTLQSGVPSRFSGSGSGTDFTLTISSLQPEDFATYYCQQLSSYPLSFGGGTKVEIK	0.101 nM	0.0457 nM	0.1 µg/mL	1.36 µg/mL	0.195 µg/mL	0.367 µg/mL	0.0767 µg/mL	0.141 µg/mL	1.18 µg/mL	2 µg/mL	0.496 µg/mL	1.12 µg/mL	1.09 µg/mL	0.134 µg/mL
3H10 (antibody, V domains shown, also called optimized anti-PcrV mAb clone 3H10) VH: EVQLLESGGGLVQPGGSLRLSCTASGFTFSDYPMSWVRQAPGKGLDWVSGISESGGSTNDADSVKGRFSTSRDNSKSTLYLDMNSLRAEDTAIYYCAKGRFSDYSQHFFRAVYGMDVWGQGTAVTVSS VL: DIQLTQSPSSLSASVGDRVTITCRASQGISSYLAWYQQKPGKAPKLLIYAASTLQSGVPSRFSGSGSGTDFTLTISSLQPEDFATYYCQQLNSYPLTFGGGTKVEIK	0.779 nM	–	0.16 µg/mL	1.78 µg/mL	–	–	–	–	–	–	–	–	–	0.149 µg/mL
6A10 (antibody, V domains shown, also called optimized anti-PcrV mAb clone 6A10) VH: EVQLLESGGGLVQPGGSLRLSCTASGFTFSDNHMSWVRQAPGKGLDWVSGISESGGSTNYADSVKGRFSTSRDNSKSTLYLDMNSLRAEDTAIYYCAKGRFSTSSSHFFRAVYGMDVWGQGTAVTVSS VL: DIQLTQSPSSLSASVGDRVTITCRASQGISSYLAWYQQKPGKAPKLLIYAASTLQSGVPSRFSGSGSGTDFTLTISSLQPEDFATYYCQQLSSYPLSFGGGTKVEIK	0.204 nM	–	0.04 µg/mL	2 µg/mL	–	–	–	–	–	–	–	–	–	0.104 µg/mL
3G3 (antibody, V domains shown, also called optimized anti-PcrV mAb clone 3G3) VH: EVQLLESGGGLVQPGGSLRLSCTASGFTFSDYPMSWVRQAPGKGLDWVSGISESGGSTYDADSVKGRFSTSRDNSKSTLYLDMNSLRAEDTAIYYCAKGRFSASAGHFFRAVYGMDVWGQGTAVTVSS VL: DIQLTQSPSSLSASVGDRVTITCRASQGIRSYLAWYQQKPGKAPKLLIYAASTLQSGVPSRFSGSGSGTDFTLTISSLQPEDFATYYCQQLSSYPLSFGGGTKVEIK	0.381 nM	–	0.18 µg/mL	2.75 µg/mL	–	–	–	–	–	–	–	–	–	0.0936 µg/mL
5B3 (antibody, V domains shown, also called optimized anti-PcrV mAb clone 5B3) VH: EVQLLESGGGLVQPGGSLRLSCTASGFTFSDYPMSWVRQAPGKGLDWVSGISESGGSTNDADSVKGRFSTSRDNSKSTLYLDMNSLRAEDTAIYYCAKGRFSQDSYHFFRAVYGMDVWGQGTAVTVSS VL: DIQLTQSPSSLSASVGDRVTITCRASQGISSYLAWYQQKPGKAPKLLIYAASTLQSGVPSRFSGSGSGTDFTLTISSLQPEDFATYYCQQLSSYPLSFGGGTKVEIK	0.455 nM	–	0.12 µg/mL	2.39 µg/mL	–	–	–	–	–	–	–	–	–	0.109 µg/mL
4A10 (antibody, V domains shown, also called optimized anti-PcrV mAb clone 4A10) VH: EVQLLESGGGLVQPGGSLRLSCTASGFTFSSYPMSWVRQAPGKGLDWVSGISESGGSTNYADSVKGRFSTSRDNSKSTLYLDMNSLRAEDTAIYYCAKGRFSDASEHFFRAVYGMDVWGQGTAVTVSS VL: DIQLTQSPSSLSASVGDRVTITCRASQGISSYLAWYQQKPGKTPKLLIYAASTLQSGVPSRFSGSGSGTDFTLTISSLQPEDFATYYCQQLSSYPLTFGGGTKVEIK	0.606 nM	–	0.16 µg/mL	2.8 µg/mL	–	–	–	–	–	–	–	–	–	0.113 µg/mL
2B1 (antibody, V domains shown, also called optimized anti-PcrV mAb clone 2B1) VH: EVQLLESGGGLVQPGGSLRLSCTASGFTFSSYPMSWVRQAPGKGLDWVSGISESGGSTNYADSVKGRFSTSRDNSKSTLYLDMNSLRAEDTAIYYCAKGRFSGESHHFFRAVYGMDVWGQGTAVTVSS VL: DIQLTQSPSSLSASVGDRVTITCRASQGISSYLAWYQQKPGKAPKLLIYAASTLQSGVPSRFSGSGSGTDFTLTISSLQPEDFATYYCQQLSSYPLSFGGGTKVEIK	0.194 nM	–	0.12 µg/mL	3.01 µg/mL	–	–	–	–	–	–	–	–	–	0.162 µg/mL
